Numbering of substitutions follows the chain as printed. Marks after values point to notes of the source that are not given here.
Tests used:
[1] = Fab stability and aggregation (size exclusion chromatography); type: physicochemical; details: Fab after purification
[2] = target: T1, human recombinant, biotinylated DKK1 (Homo sapiens, UniProt O94907); assay: ELISA binding of matured Fabs in presence of 50% human serum; details: Fab 1 μg/ml
T1 sequence (O94907 32-266): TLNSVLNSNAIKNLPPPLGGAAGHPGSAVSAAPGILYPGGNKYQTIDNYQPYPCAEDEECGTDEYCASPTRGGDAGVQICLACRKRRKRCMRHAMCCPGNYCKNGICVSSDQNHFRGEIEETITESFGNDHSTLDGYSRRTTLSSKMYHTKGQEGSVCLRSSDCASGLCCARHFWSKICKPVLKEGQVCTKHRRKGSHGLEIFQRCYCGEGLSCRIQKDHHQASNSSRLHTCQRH
Protocol: Binding specificity of the matured Fabs in the presence of 50% human serum (HS) is determined. Serial dilutions of human recombinant, biotinylated DKK1 in TBS are Coated onto Neutravidin microtiter plates for 2 h at room temperature, from 8 ng DKK1 per well to a concentration of 125 ng DKK1 per well. After coating of the antigen, wells are blocked with TBS/0.05% Tween (TBS-T) supplemented with 1% BSA for 1 h at room temperature. Purified Fabs described above are diluted either in TBS/4% BSA or TBS/50% HS at a final concentration of 1 μg/ml, added to the coated and blocked wells and the plates are incubated for 1 h at room temperature. For detection, an anti-FLAG alkaline phosphatase (AP)-conjugated antibody (1:5000 dilution in TBST) and the fluorogenic substrate AttoPhos (Roche) are used. After each incubation, the wells of the microtiter plates are washed with TBST five times, except after the final incubation step with the labeled secondary antibody when wells are washed three times.
The fluorescence is measured in a TECAN Spectrafluor plate reader. Table 8 summarizes the binding activity of the optimized anti-DKK1 Fabs in presence of 50% human serum compared to binding activity in 4% BSA, which ranges from 83% to 100%. The median value is found to be 93%, thus the anti-DKK1 Fabs are found to fully bind to target in the presence of human serum.

[3] = target: T2, DKK1/LRP6 binding on cell surface (Homo sapiens, UniProt O94907); assay: DKK1-GFP binding to LRP6 on HEK293T cell surface, fluorescence microscopy; type: cell-based; details: HEK293T transfected with LRP6 and MESD
T2 construct: made in house; LRP6 and MESD transiently transfected into HEK293T
T2 sequence (O94907 32-266): T1 sequence (O94907 32-266)
Protocol: However, upon co-transfection of LRP6 with a surface trafficking chaperone protein, MESD, GFP-tagged DKK1 can be detected on the cell surface, illustrating the specific nature of the DKK1/LRP6 interaction.
The ability of MOR04910 to inhibit DKK1/LRP6 binding on cell surface is measured by fluorescence microscopy. HEK293T cells are either mock transfected and transiently transfected with plasmids encoding LRP6 and MESD. Cells are incubated with DKK1-GFP conditioned medium together with anti-lysozyme FAb or anti-DKK1 FAb MOR04910 for 1 hour at 37° C., and examined by fluorescence microscopy. GFP fluorescence reflects DKK1-GFP binding to overexpressed LRP6 on the plasma membrane.

B1: MOR04456: parental HuCAL GOLD anti-DKK1 Fab; VH SEQ ID NO: 4, VL SEQ ID NO: 23 (antibody, listed as Homo sapiens, V domains shown)
VH: QVQLVESGGGLVQPGGSLRLSCAASGFTFNNYGMTWVRQAPGKGLEWVSGISGSGSYTYYADSVKGRFTISRDNSKNTLYLQMNSLRAEDTAVYYCARTIYMDYWGQGTLVTVSS
VL: DIVLTQSPATLSLSPGERATLSCRASQNLFSPYLAWYQQKPGQAPRLLIYGASNRATGVPARFSGSGSGTDFTLTISSLEPEDFATYYCQQYGDEPITFGQGTKVEIKRT
With B1 the Size exclusion chromatography [1] was “# (monomeric portion >90%)”.

B2: MOR04907: affinity-optimized Fab from MOR04456; VH SEQ ID NO: 8, VL SEQ ID NO: 27 (antibody, listed as Homo sapiens, V domains shown)
VH: B1 VH
VL: B1 VL with T86V, G93L, D94S, E95L, I97T
In the case of B2, the “Binding activity w/50% Human serum vs 4% BSA (%)” value [2] is reported as >83* %.

B3: MOR04516: parental HuCAL GOLD anti-DKK1 Fab; VH SEQ ID NO: 7, VL SEQ ID NO: 26 (antibody, listed as Homo sapiens, V domains shown)
VH: QVQLVQSGAEVKKPGESLKISCKGSGYSFTNYYIGWVRQMPGKGLEWMGIIYPTDSYTNYSPSFQGQVTISADKSISTAYLQWSSLKASDTAMYYCARGIPFRMRGFDYWGQGTLVTVSS
VL: DIVLTQPPSVSGAPGQRVTISCSGSSSNIGSSFVNWYQQLPGTAPKLLIGNNSNRPSGVPDRFSGSKSGTSASLAITGLQSEDEADYYCASFDMGSPNVVFGGGTKLTVLGQ
With B3 the Size exclusion chromatography [1] was “# (monomeric portion >90%)”.

B4: MOR04454: parental HuCAL GOLD anti-DKK1 Fab; VH SEQ ID NO: 2, VL SEQ ID NO: 21 (antibody, listed as Homo sapiens, V domains shown)
VH: QVQLVESGGGLVQPGGSLRLSCAASGFTFSNYGLHWVRQAPGKGLEWVSSISYYGSSTYYADSVKGRFTISRDNSKNTLYLQMNSLRAEDTAVYYCARDGSHMDKPPGYVFAFWGQGTLVTVSS
VL: DIQMTQSPSSLSASVGDRVTITCRASQGIKNYLNWYQQKPGKAPKLLIGAASSLQSGVPSRFSGSGSGTDFTLTISSLQPEDFATYYCLQYYGMPPTFGQGTKVEIKRT
With B4 the Size exclusion chromatography [1] was “# (monomeric portion >90%)”.

B5: MOR04954: affinity-optimized Fab from MOR04470; VH SEQ ID NO: 18, VL SEQ ID NO: 37 (antibody, listed as Homo sapiens, V domains shown)
VH: QVQLVESGGGLVQPGGSLRLSCAASGFTFSSYWMSWVRQAPGKGLEWVSVIEHKDKGGTTYYAASVKGRFTISRDNSKNTLYLQMNSLRAEDTAVYYCARHGIDFDHWGQGTLVTVSS
VL: DIALTQPASVSGSPGQSITISCTGTSSDLGGYNYVSWYQQHPGKAPKLMIYDVNNRPSGVSNRFSGSKSGNTASLTISGLQAEDEADYYCQSYASGNTKVVFGGGTKLTVLGQ
In the case of B5, the “Binding activity w/50% Human serum vs 4% BSA (%)” value [2] is reported as >83* %.

B6: MOR04910: affinity-optimized Fab from MOR04461; VH SEQ ID NO: 11, VL SEQ ID NO: 30; also used as MOR4910 IgG (antibody, listed as Homo sapiens, V domains shown)
VH: QVQLVESGGGLVQPGGSLRLSCAASGFTFSSYWMSWVRQAPGKGLEWVSGISYSGSNTHYADSVKGRFTISRDNSKNTLYLQMNSLRAEDTAVYYCARMGIDLDYWGQGTLVTVSS
VL: DIALTQPASVSGSPGQSITISCTGTSSDVGGFNYVSWYQQHPGKAPKLMIHDGSNRPSGVSNRFSGSKSGNTASLTISGLQAEDEADYYCQSWDVSPITAVFGGGTKLTVLGQ
For B6, the “inhibition of DKK1/LRP6 binding on cell surface” value [3] was “specifically blocks this interaction”.

B7: MOR04914: affinity-optimized Fab from MOR04470; VH SEQ ID NO: 14, VL SEQ ID NO: 33 (antibody, listed as Homo sapiens, V domains shown)
VH: B6 VH with G50V, Y53S, S54D, G55S, N57S, H59Y, M99H, L103F, Y105H
VL: B5 VL with A94T, S95Y, G96T, N97P, T98I, K99S, V100P
For B7, the “Binding activity w/50% Human serum vs 4% BSA (%)” value [2] was 83* %.

B8: MOR04921: affinity-optimized Fab from MOR04461; VH SEQ ID NO: 12, VL SEQ ID NO: 31 (antibody, listed as Homo sapiens, V domains shown)
VH: B6 VH
VL: B6 VL with S92T, D94A, V95T, I98L, T99S, A100S
With B8 the “Binding activity w/50% Human serum vs 4% BSA (%)” value [2] was 93* %.

B9: MOR04470: parental HuCAL GOLD anti-DKK1 Fab; VH SEQ ID NO: 6, VL SEQ ID NO: 25 (antibody, listed as Homo sapiens, V domains shown)
VH: B6 VH with G50V, Y53S, S54D, G55S, N57S, H59Y, M99H, L103F, Y105H
VL: B5 VL
For B9, the Size exclusion chromatography [1] was “# (monomeric portion >90%)”.

B10: MOR04461: parental HuCAL GOLD anti-DKK1 Fab; VH SEQ ID NO: 5, VL SEQ ID NO: 24 (antibody, listed as Homo sapiens, V domains shown)
VH: B6 VH
VL: DIALTQPASVSGSPGQSITISCTGTSSDVGGFNYVSWYQQHPGKAPKLMIHDGSNRPSGVSNRFSGSKSGNTASLTISGLQAEDEADYYCSTWDMTVDFVFGGGTKLTVLGQ
With B10 the Size exclusion chromatography [1] was “# (monomeric portion >90%)”.

B11: MOR04455: parental HuCAL GOLD anti-DKK1 Fab; VH SEQ ID NO: 3, VL SEQ ID NO: 22 (antibody, listed as Homo sapiens, V domains shown)
VH: QVQLVESGGGLVQPGGSLRLSCAASGFTFSSYGMSWVRQAPGKGLEWVSGISGSGSYTYYADSVKGRFTISRDNSKNTLYLQMNSLRAEDTAVYYCARHYMDHWGQGTLVTVSS
VL: DIQMTQSPSSLSASVGDRVTITCRASQDISNYLHWYQQKPGKAPKLLIYGASNLQSGVPSRFSGSGSGTDFTLTISSLQPEDFAVYYCQQYDSIPMTFGQGTKVEIKRT
With B11 the Size exclusion chromatography [1] was “# (monomeric portion >90%)”.
